Reference: IntAct's records for PubMed 19763089

B1: NF-kappa-B essential modulator (Mus musculus), O88522 (parent)
chain: MNKHPWKNQLSEMVQPSGGPAEDQDMLGEESSLGKPAMLHLPSEQGTPETLQRCLEENQELRDAIRQSNQMLRERCEELLHFQVSQREEKEFLMCKFQEARKLVERLSLEKLDLRSQREQALKELEQLKKCQQQMAEDKASVKAQVTSLLGELQESQSRLEAATKDRQALEGRIRAVSEQVRQLESEREVLQQQHSVQVDQLRMQNQSVEAALRMERQAASEEKRKLAQLQAAYHQLFQDYDSHIKSSKGMQLEDLRQQLQQAEEALVAKQELIDKLKEEAEQHKIVMETVPVLKAQADIYKADFQAERHAREKLVEKKEYLQEQLEQLQREFNKLKVGCHESARIEDMRKRHVETPQPPLLPAPAHHSFHLALSNQRRSPPEEPPDFCCPKCQYQAPDMDTLQIHVMECIE

Assays:
[1] = variants of: B1; conditions: with ubc_human UBC
[2] = variants of: B1; conditions: with ubc_human UBC; remark: listed apart in the source

Row | effect of a mutation on the interaction [1] | effect of a mutation on the interaction [2] | Variant
1 | disrupting interaction | decreasing interaction | MNKHPWKNQLSEMVQPSGGPAEDQDMLGEESSLGKPAMLHLPSEQGTPETLQRCLEENQELRDAIRQSNQMLRERCEELLHFQVSQREEKEFLMCKFQEARKLVERLSLEKLDLRSQREQALKELEQLKKCQQQMAEDKASVKAQVTSLLGELQESQSRLEAATKDRQALEGRIRAVSEQVRQLESEREVLQQQHSVQVDQLRMQNQSVEAALRMERQAASEEKRKLAQLQAAYHQLFQDYDSHIKSSKGMQLEDLRQQLQQAEEALVAKQELIDKLKEEAEQHKIVMETVPVLKAQADIYKANFQAERHAREKLVEKKEYLQEQLEQLQREFNKLKVGCHESARIEDMRKRHVETPQPPLLPAPAHHSFHLALSNQRRSPPEEPPDFCCPKCQYQAPDMDTLQIHVMECIE [D304N]
2 | disrupting interaction | decreasing interaction | MNKHPWKNQLSEMVQPSGGPAEDQDMLGEESSLGKPAMLHLPSEQGTPETLQRCLEENQELRDAIRQSNQMLRERCEELLHFQVSQREEKEFLMCKFQEARKLVERLSLEKLDLRSQREQALKELEQLKKCQQQMAEDKASVKAQVTSLLGELQESQSRLEAATKDRQALEGRIRAVSEQVRQLESEREVLQQQHSVQVDQLRMQNQSVEAALRMERQAASEEKRKLAQLQAAYHQLFQDYDSHIKSSKGMQLEDLRQQLQQAEEALVAKQELIDKLKEEAEQHKIVMETVPVLKAQADISKADFQAERHAREKLVEKKEYLQEQLEQLQREFNKLKVGCHESARIEDMRKRHVETPQPPLLPAPAHHSFHLALSNQRRSPPEEPPDFCCPKCQYQAPDMDTLQIHVMECIE [Y301S]
